Assay results taken from US20250376529A1 (Amgen, published 2025).

T1: Rhesus GIPR (rhesus, UniProt F7E1R9 22-466)
T1 sequence: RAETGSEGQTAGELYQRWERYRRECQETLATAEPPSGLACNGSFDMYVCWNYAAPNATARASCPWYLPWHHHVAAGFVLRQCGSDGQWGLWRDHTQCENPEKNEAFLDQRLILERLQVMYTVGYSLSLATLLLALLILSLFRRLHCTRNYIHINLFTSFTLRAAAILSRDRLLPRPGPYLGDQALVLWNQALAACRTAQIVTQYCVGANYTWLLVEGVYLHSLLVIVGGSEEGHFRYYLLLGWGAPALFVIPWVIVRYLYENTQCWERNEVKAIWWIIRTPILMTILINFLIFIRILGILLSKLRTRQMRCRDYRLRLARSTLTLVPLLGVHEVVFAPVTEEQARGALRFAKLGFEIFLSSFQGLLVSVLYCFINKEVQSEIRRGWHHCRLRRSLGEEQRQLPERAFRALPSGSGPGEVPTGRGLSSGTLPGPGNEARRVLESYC

B1: 18F2.012 (antibody, human IgG1, kappa, N297G, V domains shown)
VH: not shown
VL: DIQMTQSPSSLSASIGDRVTITCRASQDLRNYLGWYQQKPGKAPKLLIYGASSLQSGVPSRFSGSGSGTEFTLTISSLQPEDFATYYCLQHNNYPFTFGPGTKVDIKR
B2: 6H1.009 (antibody, human IgG1, kappa, N297G)
heavy: not shown
light: DIQMTQSPSSLSASIGDRVTITCRASQDIRDYLGWYQQKPGKAPKRLIYGASSLQSGVPSRFSGSGSGTEFTLTISSLQPEDFATYYCLQHNNYPFTFGQGTKVDIKRTVAAPSVFIFPPSDEQLKSGTASVVCLLNNFYPREAKVQWKVDNALQSGNSQESVTEQDSKDSTYSLSSTLTLSKADYEKHKVYACEVTHQGLSSPVTKSFNRGEC
B3: 4H9.004.004 (antibody, human IgG1, kappa, N297G)
heavy: not shown
light: DIQMTQSPSSLSASVGDRVTITCRASQGIRNELGWYQQKPGKAPKLLIYGASSLQSGVPSRFSGSGSGTEFTLTISSLQPEDFVTYYCLQHNSYPFTFGPGTKVDVKRTVAAPSVFIFPPSDEQLKSGTASVVCLLNNFYPREAKVQWKVDNALQSGNSQESVTEQDSKDSTYSLSSTLTLSKADYEKHKVYACEVTHQGLSSPVTKSFNRGEC
B4: 6H1.006 (antibody, human IgG1, kappa, N297G, V domains shown)
VH: QVQLVESGGGVVQPGRSLRLSCAASGFTFSYFGMHWVRQAPGKGLEWVAVIWYDGSNKYYADSVKGRFTISRDNSKNTLYLQMNSLRAEDTAVYYCARDGTIFGVLLGDYWGQGTLVTVSS
VL: DIQMTQSPSSLSASIGDRVTITCRASQDIRDYLGWYQQKPGKAPKLLIYGASSLQSGVPSRFSGSGSGTEFTLTISSLQPEDFATYYCLQHNNYPFTFGPGTKVDIKR
B5: 4B1.016 (antibody, human IgG1, kappa, N297G, V domains shown)
VH: not shown
VL: DIQMTQSPSSLSASIGDRVTITCRASQDIRDYLGWYQQKPGKAPKLLIYGASSLQSGVPSRFSGSGSGTEFTLTISSLQPEDFATYYCLQHNNYPFTFGQGTKVDIKR
B6: 4B1 (antibody, human IgG1, kappa, N297G, V domains shown)
VH: QVQLVESGGGVVQPGRSLRLSCAASGFTFSNFGMHWVRQAPGKGLEWVAVIWYDGSNENYADSVKGRFTISRDNSKNTLYLHMNSLRVADTAVYYCARDGTIFGVVLGDYWGQGTLVTVSS
VL: DIQMTQSPSSLSASIGDRVTITCRASQDIRDYLGWYQQKPGKAPKRLIYGASSLQSGVPSRFSGSGSGTEFTLTISSLQPEDFATYYCLQHNNYPFTFGPGTKVDIKR
B7: 18F2.009 (antibody, human IgG1, kappa, N297G, V domains shown)
VH: not shown
VL: DIQMTQSPSSLSASIGDRVTITCRASQDLRNYLGWYQQKPGKAPKLLIYGASSLQSGVPSRFSGSGSGTEFTLTISSLQPEDFATYYCLQHNNYPFTFGPGTKVDIKR
B8: 6H1.005 (antibody, human IgG1, kappa, N297G, V domains shown)
VH: not shown
VL: DIQMTQSPSSLSASIGDRVTITCRASQDIRDYLGWYQQKPGKAPKLLIYGASSLQSGVPSRFSGSGSGTEFTLTISSLQPEDFATYYCLQHNNYPFTFGQGTKVDIKR
B9: 4B1.014 (antibody, human IgG1, kappa, N297G, V domains shown)
VH: QVQLVESGGGVVQPGRSLRLSCAASGFTFSNFGMHWVRQAPGKGLEWVAVIWYDGSNENYADAVKGRFTISRDNSKNTLYLHMNSLRVADTAVYYCARDGTIFGVVLGDYWGQGTLVTVSS
VL: DIQMTQSPSSLSASIGDRVTITCRASQDIRDYLGWYQQKPGKAPKLLIYGASSLQSGVPSRFSGSGSGTEFTLTISSLQPEDFATYYCLQHNNYPFTFGQGTKVDIKR
B10: 4B1.015 (antibody, human IgG1, kappa, N297G, V domains shown)
VH: not shown
VL: DIQMTQSPSSLSASIGDRVTITCRASQDIRDYLGWYQQKPGKAPKLLIYGASSLQSGVPSRFSGSGSGTEFTLTISSLQPEDFATYYCLQHNNYPFTFGQGTKVDIKR
B11: 18F2.002 (antibody, human IgG1, kappa, N297G, V domains shown)
VH: not shown
VL: DIQMTQSPSSLSASIGDRVTITCRASQDLRNYLGWYQQKPGKAPKLLIYGASSLQSGVPSRFSGSGSGTEFTLTISSLQPEDFATYYCLQHNNYPFTFGPGTKVDIKR
B12: 4H9.004.001 (antibody, human IgG1, kappa, N297G)
heavy: not shown
light: DIQMTQSPSSLSASVGDRVTITCRASQGIRNELGWYQQKPGKAPKLLIYGASSLQSGVPSRFSGSGSGTEFTLTISSLQPEDFVTYYCLQHNSYPFTFGQGTKVDVKRTVAAPSVFIFPPSDEQLKSGTASVVCLLNNFYPREAKVQWKVDNALQSGNSQESVTEQDSKDSTYSLSSTLTLSKADYEKHKVYACEVTHQGLSSPVTKSFNRGEC
B13: 6H1.004 (antibody, human IgG1, kappa, N297G, V domains shown)
VH: not shown
VL: DIQMTQSPSSLSASIGDRVTITCRASQDIRDYLGWYQQKPGKAPKLLIYGASSLQSGVPSRFSGSGSGTEFTLTISSLQPEDFATYYCLQHNNYPFTFGQGTKVDIKR
notes: also called iPS:359873; iPS:359875
B14: 4B1.013 (antibody, human IgG1, kappa, N297G, V domains shown)
VH: QVQLVESGGGVVQPGRSLRLSCAASGFTFSNFGMHWVRQAPGKGLEWVAVIWYDASNENYADSVKGRFTISRDNSKNTLYLHMNSLRVADTAVYYCARDGTIFGVVLGDYWGQGTLVTVSS
VL: DIQMTQSPSSLSASIGDRVTITCRASQDIRDYLGWYQQKPGKAPKLLIYGASSLQSGVPSRFSGSGSGTEFTLTISSLQPEDFATYYCLQHNNYPFTFGQGTKVDIKR
B15: 18F2.003 (antibody, human IgG1, kappa, N297G, V domains shown)
VH: QVQLVESGGGVVQPGRSLRLSCAASGFTFSNFGMHWVRQAPGKGLEWVAVIWYDASNENYADAVKGRFTISRDNSKNTLYLHMNSLRAADTAVYYCARDGTIFGVVLGDYWGQGTLVTVSS
VL: DIQMTQSPSSLSASIGDRVTITCRASQDLRNYLGWYQQKPGKAPKLLIYGASSLQSGVPSRFSGSGSGTEFTLTISSLQPEDFATYYCLQHNNYPFTFGPGTKVDIKR
B16: 4B1.011 (antibody, human IgG1, kappa, N297G, V domains shown)
VH: not shown
VL: DIQMTQSPSSLSASIGDRVTITCRASQDIRDYLGWYQQKPGKAPKRLIYGASSLQSGVPSRFSGSGSGTEFTLTISSLQPEDFATYYCLQHNNYPFTFGQGTKVDIKR
B17: 18F2 (antibody, human IgG1, kappa, N297G, V domains shown)
VH: QVQLVESGGGVVQPGRSLRLSCAASGFTFSNFGMHWVRQAPGKGLEWVAVIWYDGSNENYADSVKGRFTISRDNSKNTLYLHMNSLRAADTAVYYCARDGTIFGVVLGDYWGQGTLVTVSS
VL: DIQMTQSPSSLSASIGDRVTITCRASQDLRNYLGWYHQKPGKAPKRLIYGASSLQSGVPSRFSGSGSGTEFTLTISSLQPEDFATYYCLQHNNYPFTFGPGTKVDIKR
B18: 6H1.002 (antibody, human IgG1, kappa, N297G, V domains shown)
VH: not shown
VL: DIQMTQSPSSLSASIGDRVTITCRASQDIRDYLGWYQQKPGKAPKRLIYGASSLQSGVPSRFSGSGSGTEFTLTISSLQPEDFATYYCLQHNNYPFTFGPGTKVDIKR
B19: 18F2.006 (antibody, human IgG1, kappa, N297G, V domains shown)
VH: QVQLVESGGGVVQPGRSLRLSCAASGFTFSNFGMHWVRQAPGKGLEWVAVIWYDASNENYADAVKGRFTISRDNSKNTLYLHMNSLRAADTAVYYCARDGTIFGVVLGDYWGQGTLVTVSS
VL: DIQMTQSPSSLSASIGDRVTITCRASQDLRNYLGWYQQKPGKAPKRLIYGASSLQSGVPSRFSGSGSGTEFTLTISSLQPEDFATYYCLQHNNYPFTFGPGTKVDIKR
B20: 18F2.007 (antibody, human IgG1, kappa, N297G, V domains shown)
VH: QVQLVESGGGVVQPGRSLRLSCAASGFTFSNFGMHWVRQAPGKGLEWVAVIWYDASNENYADAVKGRFTISRDNSKNTLYLHMNSLRAADTAVYYCARDGTIFGVVLGDYWGQGTLVTVSS
VL: DIQMTQSPSSLSASIGDRVTITCRASQDLRNYLGWYHQKPGKAPKLLIYGASSLQSGVPSRFSGSGSGTEFTLTISSLQPEDFATYYCLQHNNYPFTFGPGTKVDIKR
B21: 18F2.004 (antibody, human IgG1, kappa, N297G, V domains shown)
VH: not shown
VL: DIQMTQSPSSLSASIGDRVTITCRASQDLRNYLGWYHQKPGKAPKLLIYGASSLQSGVPSRFSGSGSGTEFTLTISSLQPEDFATYYCLQHNNYPFTFGPGTKVDIKR
B22: 18F2.008 (antibody, human IgG1, kappa, N297G, V domains shown)
VH: not shown
VL: DIQMTQSPSSLSASIGDRVTITCRASQDLRNYLGWYHQKPGKAPKRLIYGASSLQSGVPSRFSGSGSGTEFTLTISSLQPEDFATYYCLQHNNYPFTFGPGTKVDIKR
B23: 18F2.005 (antibody, human IgG1, kappa, N297G, V domains shown)
VH: not shown
VL: DIQMTQSPSSLSASIGDRVTITCRASQDLRNYLGWYQQKPGKAPKRLIYGASSLQSGVPSRFSGSGSGTEFTLTISSLQPEDFATYYCLQHNNYPFTFGPGTKVDIKR
B24: 6H1.008 (antibody, human IgG1, kappa, N297G, V domains shown)
VH: not shown
VL: DIQMTQSPSSLSASIGDRVTITCRASQDIRDYLGWYQQKPGKAPKLLIYGASSLQSGVPSRFSGSGSGTEFTLTISSLQPEDFATYYCLQHNNYPFTFGPGTKVDIKR
B25: 6H1.007 (antibody, human IgG1, kappa, N297G, V domains shown)
VH: QVQLVESGGGVVQPGRSLRLSCAASGFTFSYFGMHWVRQAPGKGLEWVAVIWYDASNKYYADSVKGRFTISRDNSKNTLYLQMNSLRAEDTAVYYCARDGTIFGVLLGDYWGQGTLVTVSS
VL: DIQMTQSPSSLSASIGDRVTITCRASQDIRDYLGWYQQKPGKAPKLLIYGASSLQSGVPSRFSGSGSGTEFTLTISSLQPEDFATYYCLQHNNYPFTFGPGTKVDIKR

Target: T1, Rhesus GIPR
Experiment: cell-based or functional assay

Compared with B1, B2 is 13-fold lower in “Rhesus GIPR CAMP Assay (Conc. mAb @ 60% Inhibition in nM)” value: 1.88 nM for the first, 0.15 nM for the second.

B3 and B4 are within 1.5-fold of each other in “Rhesus GIPR CAMP Assay (Conc. mAb @ 60% Inhibition in nM)” value: 0.44 nM for the first, 0.47 nM for the second.

Going from B5 to B6, the “Rhesus GIPR CAMP Assay (Conc. mAb @ 60% Inhibition in nM)” value falls from 1.57 nM to 0.67 nM (2.3-fold).

First: B7
Second: B8
The “Rhesus GIPR CAMP Assay (Conc. mAb @ 60% Inhibition in nM)” value of the first is 2.6-fold higher: 1.28 nM for the first, 0.49 nM for the second.

B9 and B10 are within 1.5-fold of each other in “Rhesus GIPR CAMP Assay (Conc. mAb @ 60% Inhibition in nM)” value: 0.95 nM for the first, 0.84 nM for the second.

Going from B11 to B12, the “Rhesus GIPR CAMP Assay (Conc. mAb @ 60% Inhibition in nM)” value falls from 2.23 nM to 0.43 nM (5.2-fold).

Compared with B13, B14 is 1.7-fold higher in “Rhesus GIPR CAMP Assay (Conc. mAb @ 60% Inhibition in nM)” value: 0.79 nM for the first, 1.35 nM for the second.

First: B15
Second: B16
The “Rhesus GIPR CAMP Assay (Conc. mAb @ 60% Inhibition in nM)” value of the first is 3.9-fold higher: 2.01 nM for the first, 0.51 nM for the second.

Compared with B17, B18 is 2.6-fold lower in “Rhesus GIPR CAMP Assay (Conc. mAb @ 60% Inhibition in nM)” value: 0.8 nM for the first, 0.31 nM for the second.

Going from B19 to B20, the “Rhesus GIPR CAMP Assay (Conc. mAb @ 60% Inhibition in nM)” value rises from 0.52 nM to 1.94 nM (3.7-fold).

First: B21
Second: B22
The “Rhesus GIPR CAMP Assay (Conc. mAb @ 60% Inhibition in nM)” value of the first is 1.5-fold higher: 2.72 nM for the first, 1.76 nM for the second.

Compared with B23, B24 is 2.6-fold lower in “Rhesus GIPR CAMP Assay (Conc. mAb @ 60% Inhibition in nM)” value: 1.13 nM for the first, 0.44 nM for the second.

B25 was tested, and the “Rhesus GIPR CAMP Assay (Conc. mAb @ 60% Inhibition in nM)” value was 0.55 nM.
